The results in this text go back to publication PMC12342889, “Deciphering the RNA recognition by Musashi-1 to design protein and RNA variants for in vitro and in vivo applications”.

One series deals with MSI-1 RRM1 (Homo sapiens, UniProt O43347 1-103). Description: SPR; 1:1 model; NMR: 50 mM Tris-HCl, 140 mM NaCl, 1 mM EDTA, 1 mM protease inhibitors, pH 7.2 (RRM1: pH 7.5), 298 K; fluorescence quenching: 50 mM Tris pH 7.2, 140 mM NaCl, 1 mM EDTA; SPR: biotinylated RNA immobilised, buffer not in the material. The note with it: protein: recombinant, label: biotin for SPR.
MSI-1 RRM1, sequence (O43347 1-103): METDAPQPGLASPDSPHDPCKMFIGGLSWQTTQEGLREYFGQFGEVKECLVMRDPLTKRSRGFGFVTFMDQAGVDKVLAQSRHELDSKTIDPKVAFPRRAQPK
The target in the next series is MSI-1 RRM2 (Homo sapiens, UniProt O43347 104-200). The series is described as above. To be noted: protein: recombinant, label: biotin for SPR.
MSI-1 RRM2, sequence (O43347 104-200): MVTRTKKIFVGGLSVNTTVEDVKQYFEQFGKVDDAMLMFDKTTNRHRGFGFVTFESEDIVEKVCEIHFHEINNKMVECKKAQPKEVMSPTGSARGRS
Series [1] concerns the target T1, MSI-1 RRM1-2 (Homo sapiens, UniProt O43347 1-200). Description: SPR; KD1 monovalent, 1:2 model; NMR: 50 mM Tris-HCl, 140 mM NaCl, 1 mM EDTA, 1 mM protease inhibitors, pH 7.2 (RRM1: pH 7.5), 298 K; fluorescence quenching: 50 mM Tris pH 7.2, 140 mM NaCl, 1 mM EDTA; SPR: biotinylated RNA immobilised, buffer not in the material. To be noted: protein: recombinant, label: biotin for SPR, unlabelled for NMR. Background: Surface plasmon resonance follows binding to a sensor surface in real time, without labels.

The target of a further series is MSI-1 RRM2-M1 (Homo sapiens, UniProt O43347 104-200, E180N). Description: SPR; NMR: 50 mM Tris-HCl, 140 mM NaCl, 1 mM EDTA, 1 mM protease inhibitors, pH 7.2 (RRM1: pH 7.5), 298 K; fluorescence quenching: 50 mM Tris pH 7.2, 140 mM NaCl, 1 mM EDTA; SPR: biotinylated RNA immobilised, buffer not in the material. To be noted: protein: recombinant, label: biotin for SPR.
MSI-1 RRM2-M1, sequence (O43347 104-200 E180N): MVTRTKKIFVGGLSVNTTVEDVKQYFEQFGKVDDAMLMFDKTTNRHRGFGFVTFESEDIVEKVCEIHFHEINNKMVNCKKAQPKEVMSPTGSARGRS

The next series concerns the target MSI-1 RRM2-M2 (Homo sapiens, UniProt O43347 104-200, K182M). Described as above. The note with it: protein: recombinant, label: biotin for SPR.
For series [2], the target named is T2, MSI-1 RRM1-2 DM (Homo sapiens, UniProt O43347 1-200, E180N;K182M). Nature of the series: SPR; KD1 monovalent; NMR: 50 mM Tris-HCl, 140 mM NaCl, 1 mM EDTA, 1 mM protease inhibitors, pH 7.2 (RRM1: pH 7.5), 298 K; fluorescence quenching: 50 mM Tris pH 7.2, 140 mM NaCl, 1 mM EDTA; SPR: biotinylated RNA immobilised, buffer not in the material. The note with it: protein: recombinant; label: biotin for SPR; unlabelled for NMR; single strand.
T2 sequence (O43347 1-200 E180N/K182M): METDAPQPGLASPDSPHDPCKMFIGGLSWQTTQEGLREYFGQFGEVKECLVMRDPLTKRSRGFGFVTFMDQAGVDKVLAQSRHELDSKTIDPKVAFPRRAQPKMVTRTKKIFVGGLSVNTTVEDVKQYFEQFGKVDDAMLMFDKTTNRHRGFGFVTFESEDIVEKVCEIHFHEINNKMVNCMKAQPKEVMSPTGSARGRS

The target in series [3] is T2, MSI-1 RRM1-2 DM. Description: SPR; KD1 monovalent; 1:1 model at low RNA density; NMR: 50 mM Tris-HCl, 140 mM NaCl, 1 mM EDTA, 1 mM protease inhibitors, pH 7.2 (RRM1: pH 7.5), 298 K; fluorescence quenching: 50 mM Tris pH 7.2, 140 mM NaCl, 1 mM EDTA; SPR: biotinylated RNA immobilised, buffer not in the material. The note with it: protein: recombinant; label: biotin for SPR; single strand.

The target in series [4] is T1, MSI-1 RRM1-2. Description: SPR; KD1 monovalent; bivalent part negligible; NMR: 50 mM Tris-HCl, 140 mM NaCl, 1 mM EDTA, 1 mM protease inhibitors, pH 7.2 (RRM1: pH 7.5), 298 K; fluorescence quenching: 50 mM Tris pH 7.2, 140 mM NaCl, 1 mM EDTA; SPR: biotinylated RNA immobilised, buffer not in the material. To be noted: protein: recombinant; label: biotin for SPR; single strand.

The target of series [5] is T2, MSI-1 RRM1-2 DM. Nature of the series: SPR; KD1 monovalent, 1:2 model; NMR: 50 mM Tris-HCl, 140 mM NaCl, 1 mM EDTA, 1 mM protease inhibitors, pH 7.2 (RRM1: pH 7.5), 298 K; fluorescence quenching: 50 mM Tris pH 7.2, 140 mM NaCl, 1 mM EDTA; SPR: biotinylated RNA immobilised, buffer not in the material. The note with it: protein: recombinant; label: biotin for SPR; unlabelled for NMR; single strand.

Series [6] concerns the target T2, MSI-1 RRM1-2 DM. Description: NMR; more than one species; NMR: 50 mM Tris-HCl, 140 mM NaCl, 1 mM EDTA, 1 mM protease inhibitors, pH 7.2 (RRM1: pH 7.5), 298 K; fluorescence quenching: 50 mM Tris pH 7.2, 140 mM NaCl, 1 mM EDTA; SPR: biotinylated RNA immobilised, buffer not in the material. The note with it: protein: recombinant; label: biotin for SPR; unlabelled for NMR; hairpin.

Where [7] appears, read: unlabelled for NMR, single strand.

T1 sequence (O43347 1-200): as the sequence (O43347 1-200 E180N/K182M) above, with N180E, M182K counted along it
MSI-1 RRM2-M2, sequence (O43347 104-200 K182M): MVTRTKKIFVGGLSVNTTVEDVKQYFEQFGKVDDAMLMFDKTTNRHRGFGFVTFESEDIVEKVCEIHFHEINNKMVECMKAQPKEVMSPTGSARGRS

With UUGAUAGUUAGCAGGU (ssRNA) [oligo-L3.2], the Kd with MSI-1 RRM1 (setting [7]) is 85.6 ± 7.4 nM; with MSI-1 RRM2 (setting [7]), 44.5 ± 4.5 nM; with MSI-1 RRM1-2 [1] (single strand), 144 ± 15 nM; with MSI-1 RRM2-M1 (setting [7]), 49.8 ± 11.4 nM; with MSI-1 RRM2-M2 (setting [7]), 88.5 ± 1.25 nM; with MSI-1 RRM1-2 DM [2], 98.5 ± 6.9 nM.
UUGUCAGUUACCCCUU (ssRNA) [oligo-L2.1]: the Kd with MSI-1 RRM1-2 DM [3] is 67 ± 20.4 nM; with MSI-1 RRM1 (single strand), 151 ± 16.9 nM; in the series with MSI-1 RRM2 (single strand), 123 ± 7.8 nM; in the series with MSI-1 RRM2-M1 (single strand) it was 58.6 ± 3.6 nM; with MSI-1 RRM2-M2 (single strand) it was 62.9 ± 11 nM; with MSI-1 RRM1-2 [4] it was 218 ± 27.5 nM.
For the molecule CACUCUGUAGUAUGUAGGGUUUAUUU (structured_RNA) [oligo-HP5], the Kd with MSI-1 RRM1 (unlabelled for NMR, hairpin) came to 32.8 ± 5.2 nM; in the series with MSI-1 RRM2 (unlabelled for NMR, hairpin) it was 26.4 ± 1.6 nM; with MSI-1 RRM1-2 [1] (hairpin), 48.6 ± 5.6 nM; with MSI-1 RRM2-M1 (unlabelled for NMR, hairpin) it was 14.5 ± 0.8 nM; with MSI-1 RRM2-M2 (unlabelled for NMR, hairpin), 14.5 ± 3 nM.
Turning to UUGUUAGUUACCCCUU (ssRNA) [oligo-L2], the Kd with MSI-1 RRM1 (setting [7]) was found to be 47.1 ± 0.7 nM; in the series with MSI-1 RRM2 (setting [7]) it was 25 ± 3.6 nM; in the series with MSI-1 RRM1-2 DM [5] it was 104 ± 9.5 nM; with MSI-1 RRM1-2 [1] (single strand), 57.6 ± 12.9 nM; with MSI-1 RRM2-M1 (setting [7]), 35.5 ± 3.6 nM; with MSI-1 RRM2-M2 (setting [7]), 108 ± 10.2 nM.
For the molecule UUGUUAGUUAUUAGUU (ssRNA) [oligo-L3], the Kd is 153 ± 8.6 nM in the series with MSI-1 RRM1 (setting [7]); 81.6 ± 2 nM in the series with MSI-1 RRM2 (setting [7]); 248 ± 8.5 nM with MSI-1 RRM1-2 [1] (single strand); 74.8 ± 9.3 nM with MSI-1 RRM2-M1 (setting [7]); 64.5 ± 4.1 nM in the series with MSI-1 RRM2-M2 (setting [7]); 98.5 ± 4.8 nM with MSI-1 RRM1-2 DM [2].
For AAGCGUUAGUUAUUUAGUCGCUU (structured_RNA) [oligo-HP4], the Kd was 21.9 ± 2.7 nM with MSI-1 RRM1 (unlabelled for NMR, hairpin); 37.2 ± 2.4 nM in the series with MSI-1 RRM2 (unlabelled for NMR, hairpin); 76.8 ± 5.9 nM with MSI-1 RRM1-2 [1] (hairpin); 14.1 ± 2.5 nM with MSI-1 RRM2-M1 (unlabelled for NMR, hairpin); 39.1 ± 15 nM in the series with MSI-1 RRM2-M2 (unlabelled for NMR, hairpin). The binding result with MSI-1 RRM1-2 DM [6] was “binds”.
